Measured values as given in publication PMC8216289 (Nucleic Acids Research, 2021).
Like-named read-outs stand apart in the source and are kept apart here. One block for each molecule: values may come before it.

Key:
[1] = molecular target: zinc uptake regulator (Zur) from Xanthomonas campestris pv. campestris (XcZur) (Xanthomonas campestris pv. campestris strain 8004); experiment: AUC
[2] = molecular target: zinc uptake regulator (Zur) from Xanthomonas campestris pv. campestris (XcZur) (Xanthomonas campestris pv. campestris strain 8004); experiment: AUC; remark: listed apart in the source
crystal structure = molecular target: the molecule itself; experiment: crystal structure
XcZur [3] = molecular target: T1, XcZur (Xanthomonas campestris pv. campestris …, UniProt Q4UWS5 1-172); experiment: EMSA
T1 sequence: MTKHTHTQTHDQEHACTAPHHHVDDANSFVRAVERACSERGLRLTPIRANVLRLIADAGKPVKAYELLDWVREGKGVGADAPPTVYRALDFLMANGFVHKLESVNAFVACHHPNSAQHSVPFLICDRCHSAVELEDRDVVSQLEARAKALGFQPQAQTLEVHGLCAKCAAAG

XcZur [4] = molecular target: T1, XcZur; experiment: EMSA; remark: listed apart in the source
XcZur [5] = molecular target: T1, XcZur; experiment: BLI

percent as dimers [1]: 60.3% | percent as monomers [1]: 28.9% | percent as tetramers [1]: 4.9% | stoichiometry N [1]: 2 | percent as dimers [2]: 32.9% | percent as monomers [2]: 60.5% | percent as trimers [2]: 5.8% | stoichiometry N [2]: 2
Molecule: zinc uptake regulator (Zur) from Xanthomonas campestris pv. campestris (XcZur) (natural protein)

B1: N-terminal extension deleted XcZur (T17-G172) (domain or fragment)
chain: TAPHHHVDDANSFVRAVERACSERGLRLTPIRANVLRLIADAGKPVKAYELLDWVREGKGVGADAPPTVYRALDFLMANGFVHKLESVNAFVACHHPNSAQHSVPFLICDRCHSAVELEDRDVVSQLEARAKALGFQPQAQTLEVHGLCAKCAAAG
binding result (crystal structure): binds

B2: EcZur-box (dsDNA)
DNA 1: AGAAGTGTGATATTATAACATTTCATGACTATG
DNA 2: CATAGTCATGAAATGTTATAATATCACACTTCT
binding result (XcZur [3]): binds

B3: P2976 (dsDNA)
DNA 1: TTAGGGCCACGCGGTTGCGGAGACTATTACACCGGCGCGTGATGAGATCACATCACGTG
DNA 2: CACGTGATGTGATCTCATCACGCGCCGGTGTAATAGTCTCCGCAACCGCGTGGCCCTAA
binding result (XcZur [4]): no binding

B4: P0267-Biotin (dsDNA)
DNA 1: GGCGAGTTGTTATACAGTAACATTTCTAG
DNA 2: CTAGAAATGTTACTGTATAACAACTCGCC
Kd (XcZur [5]): ~22 nM

B5: P3788-Biotin (dsDNA)
DNA 1: ATTGATACGTTATCACATTGCGCCCCGCGCT
DNA 2: AGCGCGGGGCGCAATGTGATAACGTATCAAT
Kd (XcZur [5]): ~63 nM

B6: P2472-Biotin (dsDNA)
DNA 1: AAGTGTTATAAAGTAACACTAGTCGCG
DNA 2: CGCGACTAGTGTTACTTTATAACACTT
Kd (XcZur [5]): ~38 nM
